Data: the RNAGym collection of RNA variant scans (doi:10.1073/pnas.2313332121)

B1: TPR t1 (parent)
chain: GACCAAUCUGCCCUCAGAGCUCGAGAACAUCUUCGGAUGCAGAGGAGGCAGGCUUCGGUGGCGCGAUAGCGCCAACGUCCUCAACCUCCAAUGCAUCCCACCACAUGAUGAUGCCUGAAGAGCCUUGGUUUUUUG

Variants of: B1
Assay: polymerase ribozyme fitness, log enrichment relative to wild type (log ratio); higher = more active; in vitro selection for triplet polymerase activity
Method in brief: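 Each subunit of a heterodimeric triplet polymerase ribozyme was mutagenized into a library by PCR, transcribed, and subjected to one round of in vitro selection, run in triplicate. Libraries were annealed with a biotinylated primer, the partner subunit and triplets, incubated frozen at −7 °C, and extended constructs were gel-excised, captured on streptavidin beads and recovered by RT-PCR. Input and output libraries were sequenced on Illumina, keeping genotypes with ≥10 input reads and ≥1 read per output. Fitness is log base 2 of genotype enrichment divided by wild-type enrichment, from inverse-variance-weighted replicate averages.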

Row | Variant | polymerase ribozyme fitness (log ratio)
1 | GACCAAUCUGCCCUCAGAGCUCGAGAACAUCUUCGGAUGCAGAGGAGGCAGGCUUCGGUGGCGCGAUAGCGCCAAUGUCCUCAACCUCCAAUGCAUCCCACCACAUCAUGAUGCCUGAAGGGCCUAGGUUUUUUG [C76U G107C A121G U126A] | -4.6
2 | GACCAAUCUGCCCUAAGAGCUCGAGAACAUCUUCGGAUGCAGAGGAGGCAGGCUUCGGUGGCGCGAUAGCGCCAACGUCCUCAACCUCCAAUGCAUCCCACCACAUGAUGAUGCCUGAAGAGCGUUGGUUUUUUG [C15A C124G] | 0.792
3 | GACCAAUCUGCCCUCAGAGCUCGAGAACAUCUUCGGAUGCAGAGGAGGCAGGCUUCGGUGGCGCGAUAGCGCUAACGUCCUCAACCUCCAAUGCAUCUCACCACAUGAUGAUGCCUGAAGAGCCUUGGUUUUUUG [C73U C98U] | -0.593
4 | GACCAAUUUGCCCUCAGAGCUCGAGAACAUCUUCGGAUGCAGAGGAGGCAGGCUUCGGUGGCACGAUAGCGCCAACGUCCUCAACCUCCAAUGCAUCCCACCACAUGAUGAUGCCUGAAGAGCCUUGGUUUUUUG [C8U G63A] | 0.00664
5 | GACCAAUCUGCCGUCAGAGCUCGAGAACAUCUUCGGAUGCAGAGGAAGCAGGCUUCGGUGGCGCGAUAGCGCCAACGUCCUCAACCUUCAAUGCAUCCCACUACAUGAUGAUGCCGGAAGAGACUUGGUUUUUUG [C13G G47A C88U C102U U116G C123A] | -4.62
6 | GAUCAAUCUGCCCUCAGAGCUCGAGAACAUCUUCGGAUGCAGAGGAGGCAGGCUUCGCUGGCGCGAUAGCGCCAACGUCCUCAACCUCCAAUGCAUCCCACCACAUGAUGAUGCCUGAAGAGCCUUGGUUUUUUG [C3U G58C] | -0.467
7 | GACCAAUCUGCCCUCAGAGCUCGAGAACAUCUUCGGAUGUAGAGGAGGCAGGCUUCGGUGGCGCGAUAGCGCCAACGUCCUCAACCUCCAAUGCAUCCCACCACAUUAUGAUGCCUGAAGAGCCUUGGUUUUUUG [C40U G107U] | -6.46
8 | GACCAAUCUGCCCUCAGAGCUCGAGAACAUCUUCGGAUGGAGAGGGGGCAGGCUUCGGUGCCGCGAUAGCGCCAACGUCCUCAAUCUCCAAUGCAUCCCACCACAUGAUGAUGCCUGAAGAGCCUUGGUUUUUUG [C40G A46G G61C C85U] | -6.04
9 | GACCAAUGUGCCCGCAGAGCUCGAGAACAUCUUCCGAUGCAGAGGAGGCAGGCUUCGGUGGCGUGAUAGCGCCAACGUCCUCAACCUCCAAUGUAUCCCACCACAUGAUGAUGCCUGAAGAGCCUUGGUUUUUUG [C8G U14G G35C C64U C94U] | -3.36
10 | GACCAAUCUGCCCUCAGAGCUCGAGAACAUCUUCGGAUUCAGAGGAGGCAGGCUUCGGUCGUGCGAUAGCGCCAACGUCCUCAACCUCCAAUGCAUUCCACCACAUGAUGAUGCCUGAAGAGCCUUGGUUUUUUG [G39U G60C C62U C97U] | -3.98
11 | GACCAAUCUUCCCUCAGAGCUCGAGAACAUCUUCGGAUGCAGUGGAGGCAGGCUUCGGUGGCGCGAUAGCGCGAACGUCCUCAACCUCCAAUGCAUCCCACCACAUGGUGAUGCCUGAAGAGCCUUGGUUUUUUG [G10U A43U C73G A108G] | -6.59
12 | GACCAAUCAGCCCUCAGAGCUCGAGAACAUCUUCGGAUGCAGAGGAGGCAGGCUUCGGUGGCGCGAUAGCGCCAACUUCCUCAACCUCCAAUGCAUCCCACCACAUGAUGAUGCCUGAAGAGCCUUGGUUAUUUG [U9A G77U U131A] | 0.362
13 | GACCAAUCUGCCCUCAGAGCUCGAGAACAUCUUGGGAUGCAGAGGAGGCAGGCUUCGGUGACGCGAUAGCGCCAACGUCCUCAACCUCCAAUGCAUCCCACCACAUGAUGAUGCCUGAAAAGCCUUGGUUUUUUG [C34G G61A G120A] | -5.72
14 | GACCAAUCUGCCCUCAGAGCUCGAGAACAUCUUCGGAUGCAGAGGAGGCAGGCUUCGGUGGCGCGAUAGCGCCAACGUCCUCAACCUCCAAUGCAUCCCACCACAUGAUGAUGCCUGAAGGGCCUUGGUUUUUUG [A121G] | 1.88
15 | GACCAAUCUACCCUCAGAGCUCGAGAACAUCUUCGGAUGCCGAGGAGGCAGGCUUCGGUGUCGCGAUAGCGCCAACGUCCUCAACCUCCAAAGCAUCCCACCACAUGAUGAUGCCUGAAGAGCCUUGGUUUUCUG [G10A A41C G61U U92A U133C] | -0.847
16 | GACCAAUCUGCACUCAGAGCUCGAGAACAUCUUCGGAUGCAGAGGAGGCAGGCUUCGGUGGCGCGAUAGCGCCAACGUCCUCAACCUCCAAUGCAUCCCACCACAUGAUGAUGCCAGAAGAGCCUUGGUUUUUUG [C12A U116A] | -4.12
17 | GACCAAUCUGCCCUCAGAGCUCGAGAACAUCUUCGGAUGCAGAGGAGGCAGGCUUCGGUGGCGCGAUAGCGCCAACUGCCUCAACCUCCAAUGCAUCCCACCACAUGAUGAUGCCUGAAGAGACUUGGUUUUUUG [G77U U78G C123A] | -0.257
18 | GACCAAUCUGCCCUUAGAGCUCGAGAACAUCUUCGGAUGCAGAGGAGGCAGGCUUCGGUGGCGCGAUAGCGCCGACGUCCUCAACCUCCAAUGCAUCCCACCACGUGAUGAUGCCUGAAGAGCCUUGGUUUUUUG [C15U A74G A105G] | -4.44
19 | GACCAAUCUGCCCUUAGAGCUCGAGAACAUCUUCGGAUGCAGAGGAGGCAGGCUUCGGUGGGGCGAUAGCGCCAACGUCCUAAACCUCCAAUGCAUCCCACCACAUGAUGAUGCCUGAAGAGCCUUGGUUUUUUG [C15U C62G C82A] | -2.4
20 | GACCAAUCUGCCCUCAGAGCUCGAGAACAUCUUCGGAUGCAGAGGAGGCAGGCUUCGGUGACGCGCUAGCGCCAACGCCCUCAACCUGCAAUGCAUCCCACCACAUGAUGAUGCCUGAAGAGCCUUGGUUUUUUG [G61A A66C U78C C88G] | -2.23
21 | GACCCAUCUGCCUUCAGAGCUCGAGAACAUCUUCGGAUGCAGAGGAGGCAGGCUUCGGUGGCGCGAUAGCGCCAACGUCCUCAACCUCCAAUGCAUCCCACCACAUGAUGAUGCCUGAAGAGCCUUGGUUUUUUG [A5C C13U] | -0.876

Row | Variant | polymerase ribozyme fitness (log ratio)
22 | GACCAACCUGCCCUCAGAGCUCGAGAACAUCUUCGGAUGCAGAGGUGGCAGGCUUCGGUGGCGCGAUAGCGCCAAGGUCCUCAACCUCCAAUGCAUCCCACCACAUGAUGAUGCCUGAAGAGCCUUGGUUUUUUG [U7C A46U C76G] | -0.0822
23 | GACCAAUCUGCCCUCAGAGCUCGAGAACAUCUUCGGAUGCAGAGGAGUCAGGCUUCGGUGGCGCGAUAGCGCCAACGUCCUCAACCUCCAAUGCAUCCCACCACAUGAUGAUGCCUGAAGAGCCUUGGUUUUUUU [G48U G135U] | -2.2
24 | GACCAAUCUGCCCUCAGAGCUCGAGAACAUCUUCGGAUGGAGAGGAGGCAGGCUUCGGUGGCGCGAUAGCGCCAACGUCCUCAACCUCCAAUGCAUCCCACCACAUGAUGAUGCCUGAAGAGCCUUGAUUUUUUG [C40G G128A] | -3.61
25 | GACCAAUCUGCCUUCAGAGCUCGAGAACAUCUUCGGAUGCUGAGGAGGCAGGCUUCGGUGGCUCGAUAGCGCCAACGUCCUCAACCUCCAAUGCAUCCCACCACAUGAUGAUGCCUGAAGAGCCUUGGUUUUUUG [C13U A41U G63U] | -2.71
26 | GACCAAUCUGCCCUCAGAGCUCGAGAACAUUUUCGGAUGCAGAGGAGGCAGGCUUCGGUGGCGCGAUAGCUCCAACGUCCUCAACCUCCAAUGCAUCCCACCACAUGAUGAUGCCUGAAGAGCCUUGGUUUUUUG [C31U G71U] | -4.09
27 | GACCAAUCUGCCCUCAGAGCUCGAGAACAUCUUCGGAUGCAGAGGAGGCAGGCUUCGGUGGCGCGAUACCGCCAACGUCCUCAACCUCCAAUGCAUCCCACCACAUGAUGAUGACUGAAGAGCCUUGGUUUUUUG [G69C C114A] | -2.28
28 | GACCAAUCUGACCUCAGAGCUCGAGAACAUCUUCGGAUGCAGAGGAGGCAGGCGUCGGUGGCGCGAUAGCGCCAACGUCCUCAACCUCCAAUGCAUCCCACCACAUGAUGAUGCCUGAAGAGCCUUGGUUUUUUG [C11A U54G] | -2.05
29 | GACCAAUCUGCCCUCAGAGCUCGAGAACAUCUUCGGAUGCAGAGGAGGCAGGCAUCGGUGGCGCGAUAGCGCCAACGUCCUCAACCUCCAAUGCAUCCCACCACAUGAUGAUGCCUGAAAAGCCUUGGUUUUUUG [U54A G120A] | 0.0705
30 | GACCAAUCUGCCCUCAGAGCUCGAGAACAUCUUCGGAUGCAGAGGAGGCAGGCUUCGGUGGCGCGAUAGCGGCAACGUCCUCAACCUCCGAUGCAUCCCACCACAUGAUGAUGCCUGAAGAGCCUUGGUUUUUUG [C72G A90G] | -1.28
31 | GACCAAUCUGCCCUCAGAGCUCGAGAACAUCUUCGGAUGCAUAGGAGGCAGGCUUCGGUGGCGCGAUAGCGCCAACGUCCUCAACCUCCAAUGCAUCCCACCACAUGAUGAUUCCUGAAGAGCCUUGGUUUUUUG [G42U G113U] | -3.06
32 | GACCAAUCUGCCCUCAGAGCUCGAGAACAUCUUAGGAUGCAGAGGAGGCAGGCUUUGGUGGCGCGAUAGCGCCAACGUCCUCAACCUCCAAUGCAUCCCACCACAUGAUGAUGCCUGAAGAGCCUUGGUUUUUUG [C34A C56U] | -2.12
33 | GACCAAUCUGCCCUCAGAGCUCGAGAACAUCCUCGGAUGCAGAGGAGGCAGGCUUCGGUGGCGCGAUAGCGCCAACGACCUCAGCCUCCAAUGCAUCCCACCACAUGAUGAUGCCUGAAGAACCUUGGUUUUUUG [U32C U78A A84G G122A] | -2
34 | GACCCAUCUGCCCUCAAAGCUCGAGAACAUCUUCGGAUGCAGAGGAGGCAGGCUUCGGUGGCGCGAUAGCGCCAACGUCCUCAACCUCCAAUGCAUCCCACCACAUGAUGAUGCCUGAAGAGCCUUUGUUUUUUG [A5C G17A G127U] | -4.89
35 | GACCAAUCUGCCCUCAGAGCUCGAGAACAUAUUCGGAUGCAGAGGAGGCAGGCUUCGGUGGCGCGAUAGAGCCAACGUCCUCCACCUCCAAUGCAUCCCACCACAUGAUGAUUCCUGGAGAGCCUUGGUUUUUUG [C31A C70A A83C G113U A118G] | -6.98
36 | GACCAAUCUGCCCUCAGAGCUCGAGAACAUCUUCGGAUGCAGAGGAGGCAGGCUUCGGUGGCGCGAUAGCGUAAACGUCCUCUACCUCCAAUGCAUCCCACCACAUGAAGAUGCCUGAAGAGCCUUGGUUUUUUG [C72U C73A A83U U109A] | -5.82
37 | GACCAAUCUGCCCUCAGAGCUCGAGAACAUCUUCGGUUGCAGAGGAGGCAGGCUUCGGUGGCGCGAUAUCGCCAACGUCCUCAACCUCCAAUGCAUCCCACCACAUGAUGAUGCCUGCAGAGCCUUGGUUUUUUG [A37U G69U A118C] | -2.82
38 | GACCAAUCUGCCCUCAGAGCUCGAGAACAUCUUCGGAUGCAGAGGAGGCAGGCUUCGGUGGCGCGAUAGCGCCAACGUCCUCAACCCCCAAUGCAUCCCACUACAUGAUGAAGCCUGAAGAACCUUGGUUUUUUG [U87C C102U U112A G122A] | -0.872
39 | GACCAAUCUGCCCUCAGAGCUCGAGAACAUCUUCUGAUGCAGAGGAGGCAGGCUUCGGUGACGCGAUAGCGCCAACGUCCUCAACCUCCAAUGCAUCCCACCACAUGAUGAUGCCUGAAGAGCCUUGGUUUUUUG [G35U G61A] | -4.27
40 | GACCAAUCUGCCCUCAGAGCUCGAGAACGUCUUCGGAUGCAGAGGAGGCAGGCUUCGGUGGCGCGAUAGCGCCAACGUCCUCAACCUCCAAUGCAUCCCACCACAUGAGGAUGGCUGAAGAGCCUUGGUUUUUUG [A29G U109G C114G] | -6.5
41 | GACCAAUCUGCCCUCAGAGCUCGAGAACAUCUUCGGCUGCAGAGGAGGCAGGCUUCGGUGGCGCGAUAGCGCCAACGUCCUCAACCUCCAAUGCAGCCCACCACAUGAUGAUGCCUGAAGAGCCUUGGUUUUUUG [A37C U96G] | 0.787
42 | GACCCAUCUGCCCUAAGAGCUCGAGAACAUCUUCGGAUGCAGAGGAGGCAGGCUUCGGUGGCGUGAUAGCGCCAACGUCCCCAACCUUCAAUGCAUCCCACCACAUGAUGAUGCCUGAAGAGCCUUGGUUUUUUG [A5C C15A C64U U81C C88U] | -3.57
